Results reported in the DeepSol protein solubility set.

Experiment: soluble on expression in E. coli; label from the status in PepcDB or PDB records

Sequence | soluble on expression in E. coli
MSLKILFVAAEGAPFSKTGGLGDVIGALPKSLVKAGHEVAVILPYYDMVEAKFGNQIEDVLHFEVSVGWRRQYCGIKKTVLNGVTFYFIDNQYYFFRGHVYGDFDDGERFAFFQLAAIEAMERIDFIPDLLHVHDYHTAMIPFLLKEKYRWIQAYEDIETVLTIHNLEFQGQFSEGMLGDLFGVGFERYADGTLRWNNCLNWMKAGILYANRVSTVSPSYAHEIMTSQFGCNLDHILKMESGKVSGIVNGIDADLYNPQTDALLDYHFNQEDLSGKAKNKAKLQERVGLPVRADVPLVGIVSRLTRQKGFDVVVESLHHILQEDVQIVLLGTGDPAFEGAFSWFAQIYPDKLSTNITFDVKLAQEIYAACDLFLMPSRFEPCGLSQMMAMRYGTLPLVHEVGGLRDTVRAFNPIEGSGTGFSFDNLSPYWLNWTFQTALDLYRNHPDIWRNLQKQAMESDFSWDTACKSYLDLYHSLVNEGHHHHHH | soluble
MSLKILVVGPSWVGDMMMSQSLYRTLRARYPQAIIDVMAPAWCRPLLSRMPEVNEAIPMPLGHGALAIGERRKLGHSVRERRYDRAYVLPNSFKSALVPFFANIPLRTGWRGEMRYGLLNDARVLDKDAWPLMVERYVALAYDNGVMRCAKDLPQPLVWPQLQVNEGEKSQACSAFNLSNDRPIIGFCPGAEFGPAKRWPHYHYAALAKKLIDDGYQIALFGSAKDNEAGKEIIAAISSEQQAWCRNLAGETQLEQAVILIAACKAVVTNDSGLMHVAAALDRPLVALYGPSSPDFTPPLSHKARVIRLITGYHKVRKGDAAEGYHQSLIDITPERVLQELNELLAEKTEHEEAEGGSHHHHHH | soluble
MSLKIRSITATPINLRLEAPYGWVFGELDGFSQTIVEVETEDGLIGLGEAPTPAAAAIINDVLAERLVGRDAFDIAGAEHVCLPYWTGVQSINDRTRIMAFGAIEMALWDLRGKAWNQPLYQLLGGAVRKDIPFTDYFSLRGDGPKVKGETTPEEVADYCVELHETHGTTFFEGKFSTEDPKVSLRMVELIRAKLGDEAMIRIDSNQAYSLATARRLARPLEELGVRNWEDPVATIEEMRQLRQHCSIPFSTHNIDIARAMDLKVPDAFVGNPTAHGGIGRLLRFVGACEHAGVDFWCYSGDSGIGSAAYLHLCAALGWIREPNQSLFRMQPMDITEEGPFSPRNNVVRVPEGPGLGVTLSRKNLAACHRDFAENGPCNKYHDPAKPGTYRRLPLNEGHHHHHH | soluble
MSLKITGLRTRRIHIPFDKPIGTSIHRIEGVSGLLVWLDTDEGITGESYLWAIGRHRVPVLESIVRMLGERAIGKDPRDTTARFDEMWTEINFLGHKGVSLFGIAAIDWACWDILGQSLGASVSRLLGRRRDRVTAYASGGLWASMTIPELEAQARDFVAQGFTAVKMRIGKPDIGEDIERVAAVRSAIGSRIKLMADANQGLSVNHAIRLGRKLETFDLVWFEEPVQAYDLEGSARVAAEIDTPIASGETEYGRYGFRDMLERKSADVLMPDLERVGGVTEWVRVAHMAAAYDVPVSPHIFSEHSLQLCGAISNVNYAEHMPWFAELFQERLEMVDGDLLIPDRPGMGFRFDPDAVERYADEGHHHHHH | soluble
MSLKITHVEVHRIDVPAASPPFRWRDGLSGSAPVGDGAVLHIGTDEGAEGVSVFARPGAYSTLRDLVDRVFRAELVGADPFQREWLWHRVWELDRIHELPLPTLGLIDIALWDLAGRYHGEPVWRLLGGFREAIPAYASTSTFSSVAEFLDVADQCLALGYRGIKLHAWGDARRDAELCLALRDHVGPDVPLMYDGSAGFDLPDAIRLGRALSEADYLWYEEPIREFSISAYQRLAEAVDVPLLVAETSDGAHMNAADFIRAGAATFGVRAGTTLRGGITGAMRTAHLADAFRLRAEVHGSDIPNHHLCMAISNTTYYESLVTSVNVVRERHVDDQGLVHAPAGPGIALPLDFGYGNELLPFVEQPREGHHHHHH | soluble
MSLKIVLIAPYRDLLETAITVKKDLNVDIELELGDLSEGVKVAREWEKKGVDIIISRGGTYQLIKESVSVPVVEIKVSAFDILRQFNGLIGCKEIIGVAGYKNVIYGCEVIGEILDLNLIKVVIEKEEEGLRQVAAAKEKGVSLIIGDTIGAYSAKRLGLKSRLITSGKEAVAAAVSESFRLAQALKAEKEKAEQIRTIVDFVHDGIIAIDKEGRVSIYNRMAEKIFKRPPAEAVGRKVETVVPNTRLYEVIETGKPQIGELQEVLGTMITTNRVPIVVGNEVVGAVATFQDVTMLQKVEQKIRRQLADRGLVAMYTFDEGHHHHHH | soluble
MSLKKIGVLGMGYVGIPAAVLFADAPCFEKVLGFQRNSKSSGYKIEMLNRGESPLKGEEPGLEELIGKVVKAGKFECTPDFSRISELDAVTLAIQTPFANPKDLEPDFSALIDGIRNVGKYLKPGMLVVLESTITPGTTEGMAKQILEEESGLKAGEDFALAHAPERVMVGRLLKNIREHDRIVGGIDEASTKRAVELYSPVLTVGQVIPMSATAAEVTKTAENTFRDLQIAAINQLALYCEAMGINVYDVRTGVDSLKGEGITRAVLWPGAGVGGHCLTKDTYHLERGVKIGRGELDYPEGADSIYVLARKVNDFMPAHMYNLTVAALERLGKKMDGSKVAMLGWAFIKDSDDARNTPSEPYRDLCLKAGASVMVHDPYVVNYPGVEISDNLEEVVRNADAIVVLAGHSAYSSLKADWAKKVSAKANPVIIDGRNVIEPDEFIGKGFVYKGIGREGHHHHHH | not soluble
MSLKKLISGIIAVAMALSLAACQKETKVISLSGKTMGTTYHVKYLDDGSITATSEKTHEEIEAILKDVNAKMSTYKKDSELSRFNQNTQVNTPIEISADFAKVLAEAIRLNKVTEGALDVTVGPVVNLWGFGPEKRPEKQPTPEQLAERQAWVGIDKITLDTNKEKATLSKALPQVYVDLSSIAKGFGVDQVAEKLEQLNAQNYMVEIGGEIRAKGKNIEGKPWQIAIEKPTTTGERAVEAVIGLNNMGMASSGDYRIYFEENGKRFAHEIDPKTGYPIQHHLASITVLAPTSMTADGLSTGLFVLGEDKALEVAEKNNLAVYLIIRTDNGFVTKSSSAFKKLTETKEEGGSHHHHHH | soluble
MSLKKLIVLTCTLSLLTACGDSIEKKAGEKLAAARAAFEHNDYNEAKLQIDSIKILYPKAFDTRKEGIKLMQQVELKEQQESLVYLDSMLQVKQEEFEAIKNKYTFEKNEEYQKIGNYFWPTQTVEKNLHRSFLRFQVNEQGVMTLTSIYCGPSNIHHVAVKVIAPDGSFAETPASNDSYETTDLGEKIEKADYKMGEDGNVLSFLYMNRDKKNIRVEYLGERKFSTTMTPSDREALVGTYELAKLLSSIRQIQQEKEEANLKIEFVKRKMEQKAQEEAAEKEGHHHHHH | soluble
MSLKKLRIGVVGLGGIAQKAWLPVLAAASDWTLQGAWSPTRAKALPICESWRIPYADSLSSLAASCDAVFVHSSTASHFDVVSTLLNAGVHVCVDKPLAENLRDAERLVELAARKKLTLMVGFNRRFAPLYGELKTQLATAASLRMDKHRSNSVGPHDLYFTLLDDYLHVVDTALWLSGGKASLDGGTLLTNDAGEMLFAEHHFSAGPLQITTCMHRRAGSQRETVQAVTDGALIDITDMREWREERGQGVVHKPIPGWQSTLEQRGFVGCARHFIECVQNQTVPQTAGEQAVLAQRIVDKIWRDAMSEEGGSHHHHHH | soluble
MSLKKRYDLSYNFNVHEVPRAALEERFDPKSPTKRSIAIVFEEIKNWISDIPYVISLSYTDAQDKSKKIMNVTTDSLTKVLQADLPGSYNLEYIESKFCPGEIVGKSNVLVTMPVAPTMEVKSFPILDQCVGQVGLNFELSFTGAPPYYYNTKIYKLENGERKLYDAKRYTSEGTRNRFSYSPPKEGNYEIVFDTVSNKLFTEPIKLEPVKEYTFKTSMRVKPSASLKLHHDLKLCLGDHSSVPVALKGQGPFTLTYDIIETFSSKRKTFEIKEIKTNEYVIKTPVFTTGGDYILSLVSIKDSTGCVVGLSQPDAKIQVRRDEGHHHHHH | soluble
MSLKLFITGIGSGLGKALVEEGIKRGYEVYALSRHLPEEFKEKIHFVKCDLLKVEEVQGCLFKLLSGVKELELAILNAGILGKFSDMKDISLHEIDEVMKVNLWSNKVIIDTLMELGIKVKTLIGISSGAARNCNRGWNAYSLSKAGLNCLLKLYSWELPETKVISLAPGLVLTPMLKEVMSQNEEKYPSIKRIKNAPKLTPEKTAEFIFSILPKLESVESGSFVDVREGHHHHHH | soluble
